B1: Poly(rC)-binding protein 1, residues 278 to 350; numbered along this chain, Q15365 (parent)
chain: TQTTHELTIPNNLIGCIIGRQGANINEIRQMSGAQIKIANPVEGSSGRQVTITGSAASISLAQYLINARLSSE

± gives the uncertainty stated by the source.

In the data set the parent is B1. The data set can be described thus: abundance fitness (aPCA) (normalised: wild type 0, dead -1); higher = more abundant; growth selection in yeast, the domain comes from the species named. As to conditions: Homo sapiens.
On to T51I, for which the abundance fitness was -0.107 ± 0.11. Regarding T51P, the abundance fitness was -0.682 ± 0.11.

Regarding T51H, the abundance fitness was -0.287 ± 0.17. For the variant T51Q, the abundance fitness is -0.088 ± 0.048.

For T51L, the abundance fitness is -0.034 ± 0.037.

Consider T51C, for which the abundance fitness was determined as 0.024 ± 0.085.

T51D: the abundance fitness was -0.542 ± 0.22. Regarding T51N, the abundance fitness was -0.427 ± 0.23.

In the case of T51S, the abundance fitness was -0.02 ± 0.042. As for T51K, the abundance fitness was 0.005 ± 0.052. On to T51G, for which the abundance fitness is -0.574 ± 0.065. As to T51R, the abundance fitness is -0.054 ± 0.043. On to T51F, for which the abundance fitness is -0.071 ± 0.12. As for T51E, the abundance fitness was -0.097 ± 0.038.

In the case of T51M, the abundance fitness is -0.066 ± 0.043. The value for N40M was -0.052 ± 0.056; that for N40V was -0.266 ± 0.04; that for N40S was -0.012 ± 0.042. In the case of N40L, the abundance fitness is -0.17 ± 0.041. With N40D, the abundance fitness came out at 0.034 ± 0.07. With N40H the figure was -0.094 ± 0.084; with N40W, -0.512 ± 0.053; with N40R, 0.016 ± 0.031. Take N40Y: the abundance fitness was -0.165 ± 0.1. The value for N40I was -0.553 ± 0.18; that for N40E was 0.004 ± 0.046; that for N40F was -0.373 ± 0.096. With N40P the figure was -0.002 ± 0.048; with N40T, -0.16 ± 0.06. Regarding N40Q, the abundance fitness worked out at 0.086 ± 0.048. With N40G the figure was 0.026 ± 0.029; with N40C, -0.085 ± 0.058; with N40A, -0.023 ± 0.039. On to N40K, for which the abundance fitness was found to be 0.02 ± 0.056. On to S46Q, for which the abundance fitness is -0.048 ± 0.048. Consider S46C, for which the abundance fitness was -0.021 ± 0.081. In the case of S46E, the abundance fitness was -0.088 ± 0.057. For S46D, the abundance fitness stood at 0.19 ± 0.076. As for S46A, the abundance fitness was -0.015 ± 0.051. As for S46I, the abundance fitness is -0.104 ± 0.08. Take S46L: the abundance fitness worked out at 0.064 ± 0.041.

In the case of S46G, the abundance fitness is -0.032 ± 0.057. The value for S46W was -0.125 ± 0.069; that for S46H was -0.205 ± 0.084; that for S46M was -0.139 ± 0.054. The value for S46P was -0.029 ± 0.049; that for S46R was -0.106 ± 0.048; that for S46Y was -0.117 ± 0.057. With S46V, the abundance fitness was -0.179 ± 0.067. With S46T the figure was -0.063 ± 0.046. In the case of S46F, the abundance fitness was 0.002 ± 0.075. As for S46N, the abundance fitness was 0.069 ± 0.052. S46K: the abundance fitness was -0.002 ± 0.044.

For V42I, the abundance fitness is -0.007 ± 0.11. As for V42P, the abundance fitness is -0.192 ± 0.062. As for V42K, the abundance fitness was -0.017 ± 0.052. With V42H the figure was -0.186 ± 0.12. For the variant V42S, the abundance fitness was -0.028 ± 0.042. With V42M the figure was -0.229 ± 0.067; with V42T, -0.1 ± 0.059. As for V42D, the abundance fitness was -0.028 ± 0.074. In the case of V42C, the abundance fitness was -0.086 ± 0.085. In the case of V42N, the abundance fitness is -0.272 ± 0.13. As for V42E, the abundance fitness is -0.011 ± 0.044.

As for V42R, the abundance fitness was -0.012 ± 0.032. V42Y: the abundance fitness was -0.141 ± 0.1. On to V42W, for which the abundance fitness is -0.525 ± 0.061. With V42Q, the abundance fitness is -0.159 ± 0.058. For the variant V42L, the abundance fitness is -0.151 ± 0.045. Take V42G: the abundance fitness is -0.13 ± 0.035. As for G44S, the abundance fitness is -0.235 ± 0.049.

As to G44Q, the abundance fitness is -0.308 ± 0.069.

With G44H, the abundance fitness is -0.333 ± 0.1. Consider G44V, for which the abundance fitness was -0.353 ± 0.078. In the case of G44M, the abundance fitness was -0.343 ± 0.068.

For the variant G44N, the abundance fitness is -0.12 ± 0.088.

Regarding G44W, the abundance fitness is -0.424 ± 0.1. For G44P, the abundance fitness is -0.211 ± 0.054. With G44R the figure was -0.212 ± 0.055; with G44E, -0.278 ± 0.1; with G44I, -0.732 ± 0.18. As for G44D, the abundance fitness is -0.087 ± 0.13. As for G44K, the abundance fitness is -0.229 ± 0.066.

G44T: the abundance fitness was -0.374 ± 0.059. For the variant G44Y, the abundance fitness was determined as 0.081 ± 0.078. G44F: the abundance fitness was -0.182 ± 0.094. The value for G44A was -0.213 ± 0.065; that for G44C was -0.19 ± 0.12; that for G44L was -0.401 ± 0.05.

Turning to V50E, the abundance fitness is -0.714 ± 0.12. With V50A the figure was -0.639 ± 0.089. On to V50S, for which the abundance fitness is -0.882 ± 0.16. Regarding V50W, the abundance fitness was -0.989 ± 0.2. With V50K the figure was -0.7 ± 0.14; with V50C, -0.147 ± 0.093; with V50G, -0.865 ± 0.089. As to V50L, the abundance fitness was -0.069 ± 0.035. Consider V50I, for which the abundance fitness is 0.047 ± 0.088. The value for V50F was -0.602 ± 0.19; that for V50D was -0.796 ± 0.25. Take V50Y: the abundance fitness was -0.57 ± 0.46.

V50M: the abundance fitness is -0.202 ± 0.056.

For V50H, the abundance fitness is -0.596 ± 0.35. For the variant V50R, the abundance fitness was -0.818 ± 0.11. The value for V50T was -0.901 ± 0.17; that for V50N was -0.819 ± 0.25. For the variant I38W, the abundance fitness is -0.53 ± 0.063. For the variant I38V, the abundance fitness was -0.094 ± 0.041.

With I38G, the abundance fitness was -0.727 ± 0.054. For the variant I38D, the abundance fitness is -0.754 ± 0.14. With I38Q, the abundance fitness was -0.828 ± 0.14. As to I38E, the abundance fitness was -0.679 ± 0.085. Take I38M: the abundance fitness is -0.333 ± 0.077.

As to I38T, the abundance fitness was -0.403 ± 0.11. Take I38C: the abundance fitness was -0.793 ± 0.35. Turning to I38R, the abundance fitness was -0.737 ± 0.068. With I38F the figure was -0.301 ± 0.16. On to I38P, for which the abundance fitness is -0.631 ± 0.12. Regarding I38A, the abundance fitness was -0.672 ± 0.07.

As for I38S, the abundance fitness was -0.814 ± 0.13. As to I38L, the abundance fitness was -0.11 ± 0.048. Regarding I38K, the abundance fitness is -0.612 ± 0.11. In the case of Q35N, the abundance fitness amounted to 0.088 ± 0.12. Q35S: the abundance fitness was -0.012 ± 0.057.

For Q35L, the abundance fitness was -0.15 ± 0.039. On to Q35D, for which the abundance fitness is 0.001 ± 0.083. On to Q35Y, for which the abundance fitness is -0.231 ± 0.28. For Q35W, the abundance fitness was -0.21 ± 0.062.

Turning to Q35E, the abundance fitness was -0.058 ± 0.065. On to Q35T, for which the abundance fitness stood at 0.017 ± 0.072.

Take Q35H: the abundance fitness turned out to be 0.138 ± 0.15. Q35M: the abundance fitness was -0.09 ± 0.047. The value for Q35F was -0.233 ± 0.14; that for Q35G was -0.13 ± 0.039. Q35R: the abundance fitness was 0.023 ± 0.044.

Q35V: the abundance fitness was -0.119 ± 0.035. For the variant Q35A, the abundance fitness was -0.11 ± 0.047. With Q35P the figure was -0.641 ± 0.099; with Q35I, -0.104 ± 0.17. For the variant Q35C, the abundance fitness is -0.15 ± 0.09. The value for E43C was -0.168 ± 0.083; that for E43S was -0.02 ± 0.045; that for E43R was -0.061 ± 0.046.

With E43W, the abundance fitness was -0.18 ± 0.091. On to E43M, for which the abundance fitness was 0.05 ± 0.07. The value for E43L was -0.039 ± 0.045. For E43H, the abundance fitness was -0.021 ± 0.054. For the variant E43F, the abundance fitness was -0.179 ± 0.067. With E43Y the figure was -0.051 ± 0.052; with E43T, -0.119 ± 0.056; with E43V, 0.073 ± 0.057.

As for E43N, the abundance fitness was -0.024 ± 0.054. For E43A, the abundance fitness is -0.249 ± 0.072. In the case of E43G, the abundance fitness was -0.115 ± 0.077. E43I: the abundance fitness was 0.01 ± 0.065. Take E43Q: the abundance fitness was -0.258 ± 0.079. Take G33S: the abundance fitness is -0.382 ± 0.071. In the case of G33I, the abundance fitness was -0.296 ± 0.24. With G33Q, the abundance fitness is -0.204 ± 0.075.

On to G33P, for which the abundance fitness was -1.04 ± 0.23. As to G33W, the abundance fitness is -0.414 ± 0.096. For the variant G33V, the abundance fitness is -1.05 ± 0.12. Take G33H: the abundance fitness is -0.618 ± 0.24.

On to G33Y, for which the abundance fitness was -1.01 ± 0.35. With G33T the figure was -0.575 ± 0.11; with G33M, -0.657 ± 0.11. Consider G33F, for which the abundance fitness is -0.927 ± 0.26.

The values are drawn from the Human Domainome abundance scans (Beltran et al. 2025).
